B1: NLV2 TCR alpha chain (CDR3α only) (parent)
chain: AGPMKTSYDKVI
partner: MLVPMVATV
B2: NLV2 TCR alpha chain (CDR3α only) (parent)
chain: AGPMKTSYDKVI
partner: NLVGMVATV

Variants of: B1
Test: T-Switch: Jurkat TCRβ−/− cells expressing a CDR3 saturation-mutagenesis library, stained with two peptide-HLA-A*02:01 tetramers (original and novel peptide) plus anti-CD3, FACS-sorted into four gates, gDNA sequenced
Conditions: with HLA-A*02:01 with peptide … (NLV 3-1, the novel peptide), tetramers 1 µg/mL, 30 min on ice, SP, DP and SW gates expanded about 10 days between rounds ('two to three rounds of selection' in the Methods), gate SW: higher = more of the variant in the gate that binds the novel peptide and not the original one = switched binding. Fold enrichment of the CDR3 variant in one FACS gate of a two-tetramer stain, unresolved parent, parent is a CDR3 fragment, scale: fold enrichment, numbering: sequential-on-construct, sequence starts at 1
In the case of […] (CDR3 as printed); P3A derived by comparing it with the table's wild-type CDR3 AGPMKTSYDKVI, the enrichment is reported as 0. For […] (CDR3 as printed); P3I derived by comparing it with the table's wild-type CDR3 AGPMKTSYDKVI, the enrichment was 0. Variant […] (CDR3 as printed); P3N derived by comparing it with the table's wild-type CDR3 AGPMKTSYDKVI has an enrichment of 0. In the case of […] (CDR3 as printed); A1I derived by comparing it with the table's wild-type CDR3 AGPMKTSYDKVI, the enrichment is reported as 0. Variant […] (CDR3 as printed); D9G derived by comparing it with the table's wild-type CDR3 AGPMKTSYDKVI has an enrichment of 0. For […] (CDR3 as printed); D9Q derived by comparing it with the table's wild-type CDR3 AGPMKTSYDKVI, the enrichment was 0. With […] (CDR3 as printed); V11W derived by comparing it with the table's wild-type CDR3 AGPMKTSYDKVI the enrichment was 0. […] (CDR3 as printed); S7M derived by comparing it with the table's wild-type CDR3 AGPMKTSYDKVI was tested, and the enrichment was 0. Variant […] (CDR3 as printed); D9R derived by comparing it with the table's wild-type CDR3 AGPMKTSYDKVI has an enrichment of 0. In the case of […] (CDR3 as printed); S7Y derived by comparing it with the table's wild-type CDR3 AGPMKTSYDKVI, the enrichment is reported as 0. […] (CDR3 as printed); V11E derived by comparing it with the table's wild-type CDR3 AGPMKTSYDKVI showed an enrichment of 0. Variant […] (CDR3 as printed); G2K derived by comparing it with the table's wild-type CDR3 AGPMKTSYDKVI has an enrichment of 0. […] (CDR3 as printed); T6E derived by comparing it with the table's wild-type CDR3 AGPMKTSYDKVI showed an enrichment of 0. For […] (CDR3 as printed); K10V derived by comparing it with the table's wild-type CDR3 AGPMKTSYDKVI, the enrichment was 0. For […] (CDR3 as printed); Y8C derived by comparing it with the table's wild-type CDR3 AGPMKTSYDKVI, the enrichment was 0. For […] (CDR3 as printed); A1T derived by comparing it with the table's wild-type CDR3 AGPMKTSYDKVI, the enrichment was 0. […] (CDR3 as printed); I12H derived by comparing it with the table's wild-type CDR3 AGPMKTSYDKVI gave an enrichment of 0. With […] (CDR3 as printed); M4L derived by comparing it with the table's wild-type CDR3 AGPMKTSYDKVI the enrichment was 0. Variant […] (CDR3 as printed); M4A derived by comparing it with the table's wild-type CDR3 AGPMKTSYDKVI has an enrichment of 0. For […] (CDR3 as printed); T6F derived by comparing it with the table's wild-type CDR3 AGPMKTSYDKVI, the enrichment was 0. With […] (CDR3 as printed); V11Y derived by comparing it with the table's wild-type CDR3 AGPMKTSYDKVI the enrichment was 0. Work on […] (CDR3 as printed); M4G derived by comparing it with the table's wild-type CDR3 AGPMKTSYDKVI yielded an enrichment of 0.

Variants of: B2
Test: as above
Conditions: with HLA-A*02:01 with peptide … (NLV 2-2, the original bait), tetramers 1 µg/mL, 30 min on ice, DP and SW gates expanded about 10 days between rounds ('two to three rounds of selection' in the Methods), gate SP: higher = more of the variant in the gate that binds the original peptide and not the novel one = retained original binding. Fold enrichment of the CDR3 variant in one FACS gate of a two-tetra, unresolved parent, parent is a CDR3 fragment, scale: fold enrichment, numbering: sequential-on-construct, sequence …
[…] (CDR3 as printed); T6S derived by comparing it with the table's wild-type CDR3 AGPMKTSYDKVI gave an enrichment of 0. In the case of […] (CDR3 as printed); T6R derived by comparing it with the table's wild-type CDR3 AGPMKTSYDKVI, the enrichment is reported as 0. In the case of […] (CDR3 as printed); T6P derived by comparing it with the table's wild-type CDR3 AGPMKTSYDKVI, the enrichment is reported as 9.39. With […] (CDR3 as printed); Y8S derived by comparing it with the table's wild-type CDR3 AGPMKTSYDKVI the enrichment was 0. […] (CDR3 as printed); Y8N derived by comparing it with the table's wild-type CDR3 AGPMKTSYDKVI was tested, and the enrichment was 0. Work on […] (CDR3 as printed); V11N derived by comparing it with the table's wild-type CDR3 AGPMKTSYDKVI yielded an enrichment of 0. Variant […] (CDR3 as printed); Y8I derived by comparing it with the table's wild-type CDR3 AGPMKTSYDKVI has an enrichment of 0. With […] (CDR3 as printed); Y8C derived by comparing it with the table's wild-type CDR3 AGPMKTSYDKVI the enrichment was 0. In the case of […] (CDR3 as printed); Y8V derived by comparing it with the table's wild-type CDR3 AGPMKTSYDKVI, the enrichment is reported as 0. […] (CDR3 as printed); T6W derived by comparing it with the table's wild-type CDR3 AGPMKTSYDKVI showed an enrichment of 0. For […] (CDR3 as printed); V11F derived by comparing it with the table's wild-type CDR3 AGPMKTSYDKVI, the enrichment was 0. In the case of […] (CDR3 as printed); V11W derived by comparing it with the table's wild-type CDR3 AGPMKTSYDKVI, the enrichment is reported as 0. […] (CDR3 as printed); T6Q derived by comparing it with the table's wild-type CDR3 AGPMKTSYDKVI was tested, and the enrichment was 0. Work on […] (CDR3 as printed); Y8P derived by comparing it with the table's wild-type CDR3 AGPMKTSYDKVI yielded an enrichment of 0. […] (CDR3 as printed); V11K derived by comparing it with the table's wild-type CDR3 AGPMKTSYDKVI showed an enrichment of 0. In the case of […] (CDR3 as printed); T6Y derived by comparing it with the table's wild-type CDR3 AGPMKTSYDKVI, the enrichment is reported as 0. With […] (CDR3 as printed); V11Q derived by comparing it with the table's wild-type CDR3 AGPMKTSYDKVI the enrichment was 0. In the case of […] (CDR3 as printed); V11S derived by comparing it with the table's wild-type CDR3 AGPMKTSYDKVI, the enrichment is reported as 1.91. […] (CDR3 as printed); Y8E derived by comparing it with the table's wild-type CDR3 AGPMKTSYDKVI showed an enrichment of 0.105. For […] (CDR3 as printed); Y8Q derived by comparing it with the table's wild-type CDR3 AGPMKTSYDKVI, the enrichment was 0. […] (CDR3 as printed); V11M derived by comparing it with the table's wild-type CDR3 AGPMKTSYDKVI showed an enrichment of 0. […] (CDR3 as printed); Y8W derived by comparing it with the table's wild-type CDR3 AGPMKTSYDKVI gave an enrichment of 0. […] (CDR3 as printed); V11H derived by comparing it with the table's wild-type CDR3 AGPMKTSYDKVI showed an enrichment of 0. Variant […] (CDR3 as printed); Y8G derived by comparing it with the table's wild-type CDR3 AGPMKTSYDKVI has an enrichment of 0. In the case of […] (CDR3 as printed); Y8F derived by comparing it with the table's wild-type CDR3 AGPMKTSYDKVI, the enrichment is reported as 0. With […] (CDR3 as printed); T6V derived by comparing it with the table's wild-type CDR3 AGPMKTSYDKVI the enrichment was 22.1. […] (CDR3 as printed); V11A derived by comparing it with the table's wild-type CDR3 AGPMKTSYDKVI was tested, and the enrichment was 1.13. Work on […] (CDR3 as printed); Y8L derived by comparing it with the table's wild-type CDR3 AGPMKTSYDKVI yielded an enrichment of 0. […] (CDR3 as printed); Y8D derived by comparing it with the table's wild-type CDR3 AGPMKTSYDKVI was tested, and the enrichment was 0. […] (CDR3 as printed); V11P derived by comparing it with the table's wild-type CDR3 AGPMKTSYDKVI gave an enrichment of 0. With […] (CDR3 as printed); V11R derived by comparing it with the table's wild-type CDR3 AGPMKTSYDKVI the enrichment was 0. For […] (CDR3 as printed); V11C derived by comparing it with the table's wild-type CDR3 AGPMKTSYDKVI, the enrichment was 0. Work on […] (CDR3 as printed); Y8K derived by comparing it with the table's wild-type CDR3 AGPMKTSYDKVI yielded an enrichment of 0. Work on […] (CDR3 as printed); V11I derived by comparing it with the table's wild-type CDR3 AGPMKTSYDKVI yielded an enrichment of 5. […] (CDR3 as printed); V11D derived by comparing it with the table's wild-type CDR3 AGPMKTSYDKVI showed an enrichment of 0.11. In the case of […] (CDR3 as printed); V11Y derived by comparing it with the table's wild-type CDR3 AGPMKTSYDKVI, the enrichment is reported as 0. Work on […] (CDR3 as printed); V11T derived by comparing it with the table's wild-type CDR3 AGPMKTSYDKVI yielded an enrichment of 0. With […] (CDR3 as printed); Y8M derived by comparing it with the table's wild-type CDR3 AGPMKTSYDKVI the enrichment was 0. For […] (CDR3 as printed); T6M derived by comparing it with the table's wild-type CDR3 AGPMKTSYDKVI, the enrichment was 0. Work on […] (CDR3 as printed); V11E derived by comparing it with the table's wild-type CDR3 AGPMKTSYDKVI yielded an enrichment of 0. In the case of […] (CDR3 as printed); V11L derived by comparing it with the table's wild-type CDR3 AGPMKTSYDKVI, the enrichment is reported as 0. Work on […] (CDR3 as printed); Y8R derived by comparing it with the table's wild-type CDR3 AGPMKTSYDKVI yielded an enrichment of 0. […] (CDR3 as printed); Y8T derived by comparing it with the table's wild-type CDR3 AGPMKTSYDKVI showed an enrichment of 0.942. […] (CDR3 as printed); Y8H derived by comparing it with the table's wild-type CDR3 AGPMKTSYDKVI gave an enrichment of 0. Variant […] (CDR3 as printed); T6N derived by comparing it with the table's wild-type CDR3 AGPMKTSYDKVI has an enrichment of 0. In the case of […] (CDR3 as printed); V11G derived by comparing it with the table's wild-type CDR3 AGPMKTSYDKVI, the enrichment is reported as 0. Variant […] (CDR3 as printed); Y8A derived by comparing it with the table's wild-type CDR3 AGPMKTSYDKVI has an enrichment of 0.
